Assay results reported in US20040038888A1 (priority 2002, published 2004).

How the values were obtained:
ADCYAP1R1 = biological target: T1, ADCYAP1R1 (Homo sapiens, UniProt P41586); settings: unlike PACAP, which binds ADCYAP1R1 and VIPR1 & 2; Moro and Lerner 1997; cited from earlier work
T1 sequence (P41586 21-468): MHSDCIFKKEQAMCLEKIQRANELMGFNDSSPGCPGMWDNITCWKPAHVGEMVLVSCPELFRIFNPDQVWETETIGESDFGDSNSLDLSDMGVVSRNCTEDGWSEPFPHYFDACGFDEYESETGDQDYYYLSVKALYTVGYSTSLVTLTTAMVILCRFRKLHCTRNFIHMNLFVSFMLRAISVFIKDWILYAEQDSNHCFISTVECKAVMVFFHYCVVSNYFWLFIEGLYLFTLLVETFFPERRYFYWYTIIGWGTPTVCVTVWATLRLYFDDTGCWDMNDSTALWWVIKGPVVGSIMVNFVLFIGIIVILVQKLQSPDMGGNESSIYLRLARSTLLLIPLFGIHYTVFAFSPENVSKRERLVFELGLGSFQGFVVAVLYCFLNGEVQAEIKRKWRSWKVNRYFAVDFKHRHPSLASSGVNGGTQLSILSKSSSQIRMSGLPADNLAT

[1] = test system: mouse adult neural stem cells; assay: Intracellular ATP assay, adult mouse NSC, non-adherent culture; assay type: cell-based; settings: varying concentrations, non-adherent conditions, 3 days, relative to control, dose-dependent
Description: The anterior lateral wall of the lateral ventricle of 5-6 week old mice was enzymatically dissociated in 0.8 mg/ml hyaluronidase and 0.5 mg/ml trypsin in DMEM containing 4.5 mg/ml glucose and 80 units/ml DNase at 37° C. for 20 min. The cells were gently triturated and mixed with three volumes of Neurosphere medium (DMEM/F12, B27 supplement, 12.5 mM HEPES pH7.4) containing 20 ng/ml EGF (unless otherwise stated), 100 units/ml penicillin and 100μg/ml streptomycin. After passing through a 70 μm strainer, the cells were pelleted at 160×g for 5 min. The supernatant was subsequently removed and the cells resuspended in Neurosphere medium supplemented as above, plated out in culture dishes and incubated at 37° C. Neurospheres were ready to be split approximately 7 days after plating.
To split neurosphere cultures, neurospheres were collected by centrifugation at 160×g for 5 min. […]
Mouse neurospheres, cultured as described above, from passage 2, were seeded in DMEM/F12 supplemented with B27 into a 96-well plate as single cells (10000 cells/well) to the substances to be measured were added at the concentrations indicated. After 3 days incubation, intracellular ATP was measured using the ATP-SL kit from BioThema, Sweden, according to the manufacturer's instructions. […]

B1: Maxadilan: 63 amino acid peptide from salivary gland extracts of the sand fly; specific ADCYAP1R1 agonist (SEQ ID NO: 13) (peptide, listed as Mus musculus)
chain: CDATCQFRKAIEDCRKKAHHSDVLQTSVQTTATFTSMDTSQLPGSGVFKECMKEKAKEFKAGK
binding specificity (ADCYAP1R1): binds specifically to only ADCYAP1R1
intracellular ATP levels, and hence cell number [1]: statistically significant increase in intracellular ATP levels
